The source of these data is paper PMC8054193.

The experiment deals with Strep-SUMO-Bos1.

Ssa1, sequence (P10591 whole entry): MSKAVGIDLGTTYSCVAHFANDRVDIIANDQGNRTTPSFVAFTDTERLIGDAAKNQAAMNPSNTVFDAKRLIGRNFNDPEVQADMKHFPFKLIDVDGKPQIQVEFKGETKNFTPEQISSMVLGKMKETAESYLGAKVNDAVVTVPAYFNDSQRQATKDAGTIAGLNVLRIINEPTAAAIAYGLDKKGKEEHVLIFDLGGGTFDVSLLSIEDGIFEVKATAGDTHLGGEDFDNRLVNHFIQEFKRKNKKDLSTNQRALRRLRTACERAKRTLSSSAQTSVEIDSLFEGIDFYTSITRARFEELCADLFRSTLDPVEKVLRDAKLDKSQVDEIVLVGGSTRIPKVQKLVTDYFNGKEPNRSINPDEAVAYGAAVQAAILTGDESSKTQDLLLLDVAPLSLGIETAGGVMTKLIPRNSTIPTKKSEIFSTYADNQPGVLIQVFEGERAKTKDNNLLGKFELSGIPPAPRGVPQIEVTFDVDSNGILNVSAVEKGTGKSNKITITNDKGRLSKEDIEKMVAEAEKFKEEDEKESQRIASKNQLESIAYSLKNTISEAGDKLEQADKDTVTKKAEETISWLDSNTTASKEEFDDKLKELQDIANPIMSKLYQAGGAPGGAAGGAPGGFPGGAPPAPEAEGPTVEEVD

Regarding “Ssa1 (from UniProt P10591 1-642) (natural protein)”, the K (Soluble) from the Ssa1 concentration dependence of soluble Bos1 (sedimentation of 3 μM Bos1, Western blot, fit to Equation 2), Ssa1 alone is 0.73 µM; the K (Soluble) from the Ssa1 concentration dependence of soluble Bos1 (sedimentation of 3 μM Bos1, Western blot, fit to Equation 2), equimolar Ssa1 and Ydj1 was 0.014 µM.
